Reference: patent US20260055202A1 (TEXAS A AND M UNIVERSITY SYSTEM, published 2026)

T1: human CD20 on Raji B lymphoma cells (human, UniProt P11836 1-297)
T1 construct: whole, on cells; also called hCD20
T1 sequence (looked up): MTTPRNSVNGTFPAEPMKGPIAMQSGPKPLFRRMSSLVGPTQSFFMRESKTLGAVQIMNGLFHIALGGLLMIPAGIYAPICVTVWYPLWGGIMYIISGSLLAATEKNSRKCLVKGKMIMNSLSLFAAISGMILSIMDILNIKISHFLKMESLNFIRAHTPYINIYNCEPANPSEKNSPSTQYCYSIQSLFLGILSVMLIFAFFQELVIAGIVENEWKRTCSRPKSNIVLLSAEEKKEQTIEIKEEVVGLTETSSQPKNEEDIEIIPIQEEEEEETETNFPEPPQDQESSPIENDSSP

T2: mouse CD20 on transfected HEK293T cells (mouse, UniProt P19437 1-291)
T2 construct: whole, on cells; Expressed from pCMV5 mCD20 in HEK293T cells; also called mCD20; MS4A1
T2 sequence (looked up): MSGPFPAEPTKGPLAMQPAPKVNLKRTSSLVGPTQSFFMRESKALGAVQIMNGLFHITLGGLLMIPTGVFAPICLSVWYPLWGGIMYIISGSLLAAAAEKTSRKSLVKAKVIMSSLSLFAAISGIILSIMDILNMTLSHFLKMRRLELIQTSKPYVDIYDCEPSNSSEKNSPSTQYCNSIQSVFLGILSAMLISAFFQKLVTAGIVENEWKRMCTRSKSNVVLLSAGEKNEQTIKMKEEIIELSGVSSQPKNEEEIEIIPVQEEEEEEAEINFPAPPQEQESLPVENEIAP

B1: AC1 (chicken-derived anti-hCD20 mAb, chicken-human chimeric) (antibody, human IgG1, V domains shown)
VH: AVTLDESGGGLQTPGGGLSLVCKASGFDFSSYAMVWVRQAPGKGLEYVGEITNYAAGSGTWYGAAVKGRATISRDNGQSTVRLQLNNLRAEDTATYYCAKGPISGSIGYLSSIDAWGHGTEVIVSS
VL: ALTQPSSVSANPGETVKITCSGGSSRYGYGWYQQKSPGSAPVTVIYWNDKRPSDIPSRFSGSKSGSTGTLTITGVRAEDEAVYYCGNYDNNDPAFGAGTTLTVL
modifications: Atto 488 NHS-ester label on lysines in the direct immunofluorescence and mCD20 assays (positions not defined)
notes: Chicken VH fused to human CH1 and CH2-CH3 of human IgG1; chicken VL fused to human kappa constant domain; made in Expi293F cells; also called chAC1
B2: AC11 (chicken-derived anti-hCD20 mAb, chicken-human chimeric) (antibody, human IgG1, V domains shown)
VH: AVTLDESGGGLQTPGGALSLVCKASGFDFSSSYINWVRQAPGKGLEYVAQINKDGGGSWYAPVVKGRATISRDNGQSTVRLQLSNLRAEDTGIYFCAKNADSGCVGVGGCIDTWGHGTEVIVSS
VL: ALTQPSSVSANPGETVKITCSGGSYYYGGNYYYGWYQQKSPGSAPVTLIYNNNKRPSDIPSRFSGSTSGSTGTLTITGVQADDEAVYYCGGYDSSYVAIFGAGTTLTVL
modifications: Atto 488 NHS-ester label on lysines in the direct immunofluorescence and mCD20 assays (positions not defined)
notes: Chicken VH fused to human CH1 and CH2-CH3 of human IgG1; chicken VL fused to human kappa constant domain; made in Expi293F cells; also called chAC11; parental AC11
B3: ACR7 (chicken-derived anti-hCD20 mAb, chicken-human chimeric) (antibody, human IgG1, V domains shown)
VH: AVTLDESGGGLQTPGGALSLVCKASGFTFNSNGMGWVRQAPGKGLEWVAGIHSSGRYTYYGTAVKGRATISRDNGQSTVRLQLNDLRAEDTATYYCAKNADSAYGYWYAGSIDAWGHGTEVIVSS
VL: ALTQPSSVSANLGGTVEITCSGGYSSYGYSWHQQKSPASAPVTLIYNNNNRPSDIPSRFSGSASGSTATLTITGVQAEDEAVYYCAFTDYSSLAGVFGAGTTLTVL
modifications: Atto 488 NHS-ester label on lysines in the direct immunofluorescence and mCD20 assays (positions not defined)
notes: Chicken VH fused to human CH1 and CH2-CH3 of human IgG1; chicken VL fused to human kappa constant domain; made in Expi293F cells; also called chACR7
B4: ACR8 (chicken-derived anti-hCD20 mAb, chicken-human chimeric) (antibody, human IgG1, V domains shown)
VH: AVTLDESGGGLQTPGGALSLVCKASGFSFDRHGMFWVRQAPGKGLEWVAGIRSTGSYPKYGPAVKGRATISRDNGQSTVRLQLNNLRAEDTARYFCVRNVYIGDYDGDSIDAWGHGTEVIVSS
VL: ALTQPSSVSANLGGTVEITCSGSSSGYGSYYGWYQQKSPGSAPVTVIYENTNRPSNIPSRFSGSESGSTATLTITGVQAEDEAVYFCGSADDSGNSAIFGAGTTLTVL
modifications: Atto 488 NHS-ester label on lysines in the direct immunofluorescence and mCD20 assays (positions not defined)
notes: Chicken VH fused to human CH1 and CH2-CH3 of human IgG1; chicken VL fused to human kappa constant domain; made in Expi293F cells; also called chACR8
B5: Rituximab (antibody, V domains shown)
VH: QVQLQQPGAELVKPGASVKMSCKASGYTFTSYNMHWVKQTPGRGLEWIGAIYPGNGDTSYNQKFKGKATLTADKSSSTAYMQLSSLTSEDSAVYYCARSTYYGGDWYFNVWGAGTTVTVSA
VL: QIVLSQSPAILSASPGEKVTMTCRASSSVSYIHWFQQKPGSSPKPWIYATSNLASGVPVRFSGSGSGTSYSLTISRVEAEDAATYYCQQWTSNPPTFGGGTKLEIK
B6: hAC11-10 (humanized variant of mAb AC11) (antibody, V domains shown)
VH: EVQLVESGGGLVQPGGSLRLSCKASGFTFSSSYINWVRQAPGKGLEYVAQINKDGGGSWYAPVVKGRFTISRDNAKNTVYLQMNSLRAEDTAVYYCAKNADSGCVGVGGCIDTWGQGTTVTVSS
VL: SYELTQPSSVSVSPGQTVRITCSGGSYYYGGNYYYGWYQQKPGQAPVTVIYNNNKRPSGIPERFSGSNSGNTGTLTISGVQAEDEADYYCGGYDSSYVAIFGGGTKLTVL
notes: Humanized variable regions; constant regions not restated for this variant (the parental format is human IgG1 with a human kappa constant domain)

Columns and labels:
[1] = target: T1, human CD20 on Raji B lymphoma cells; assay: flow cytometry on Raji cells, indirect immunofluorescence (Atto 488-labeled anti-human Fc secondary Ab), median fluorescence intensity
Experimental: Median fluorescence intensities (MFIs) from histograms calculated using FlowJo software were used to generate the binding curves in FIG. 8. The identity and concentration of the Ab and calculated MFI is shown in the insets of histograms.
(§1) Binding of anti-hCD20 mAbs to Raji cells: Anti-hCD20 Abs diluted in DPBS/1% bovine serum albumin (BSA) were incubated with 6×10⁵ Raji cells in V-bottom 96-well plates at 4° C. for 1 hour in a final volume of […]. […] Binding of mAbs to live single cells gated by light scatter characteristics was measured using a BD LSRFortessa X-20 flow cytometer. The binding of bacteriophage displaying the Fab portions of the chicken Abs to hCD20-transfected Chinese hamster ovary (CHO) cells was also measured (FIG. 4).

[2] = target: T1, human CD20 on Raji B lymphoma cells; assay: flow cytometry on Raji cells, indirect immunofluorescence (Atto 488-labeled anti-human Fc secondary Ab), MFI against concentration, 5PL fit
Experimental: The median fluorescence intensity (MFI) of Ab-coated cells was determined using FlowJo software. Data for the lowest mAb concentration derives from cells incubated with just buffer (no Ab). […] Values are the mean±SD of duplicate measurements.
as §1

[3] = target: T1, human CD20 on Raji B lymphoma cells; assay: flow cytometry on Raji cells, direct immunofluorescence with A488-labeled Ab, MFI against concentration, 5PL fit [panel A]
Experimental: Raji cells were incubated with A488-labeled anti-hCD20 Abs followed by washing and flow cytometric analysis using a BD LSRFortessa X-20 instrument. The median fluorescence intensities (MFIs) of Ab-coated cells were determined using FlowJo software and fitted to an asymmetric sigmoidal 5PL curve using GraphPad Prism. Data are the mean±SD of duplicate measurements and are from one of two independent, representative experiments.

[4] = target: T1, human CD20 on Raji B lymphoma cells; assay: cell-based or functional assay
[5] = target: T2, mouse CD20 on transfected HEK293T cells; assay: flow cytometry with Atto 488-labeled Ab on HEK293T cells transfected with pCMV5-mCD20 versus pCMV5 (mock)
Experimental: The identity of the Abs is indicated at the top. Anti-mCD20: commercially obtained anti-mCD20 Ab (eBioscience/Thermo Fisher). Data are from one of two independent, representative experiments.
Cross-reactivity of anti-hCD20 mAbs with mouse CD20: HEK293T cells in P100 tissue culture dishes were transfected at 70-90% confluency with […] pCMV5 mCD20 expression plasmid or parental pCMV5 (mock transfection) using jetOPTIMUS (Polyplus-transfection) reagent per the manufacturer's recommended protocol at a 1:1 jetOPTIMUS:DNA (L: g) ratio. Two days post transfection, the supernatant on the transfected cells was aspirated and the cells dislodged by vigorous pipetting with DPBS (HyClone). The cells were pelleted by centrifugation and the buffer replaced with 8 mL chilled blocking buffer (DPBS/10% FBS). The cells were blocked with gentle rocking at 4° C. for 30 minutes. […] of the blocked cells were transferred to individual wells of a conical-bottom 96-well plate and the cells were pelleted by centrifugation prior to incubation with […] of […] A488-labeled anti-hCD20 Abs or […] A488-labeled anti-mouse CD20 Ab (eBioscience/Thermo Fisher) at 4° C. with rocking for 1 hour. The Ab-coated cells were washed three times with cold DPBS/1% BSA and resuspended in […] DPBS/1% BSA prior to flow cytometric analysis in the FITC channel using a BD LSRFortessa X-20 cytometer. Histogram plots were generated with Flowing Software v2.5.1 (University of Turku).

[6] = target: T1, human CD20 on Raji B lymphoma cells; assay: flow cytometry on Raji cells (binding/hCD20 receptor occupancy), A488-labeled secondary anti-human IgG Fcγ Ab, MFI against concentration, 5PL fit
Experimental: The experiment was carried out by detection of bound unlabeled anti-hCD20 Abs using A488-labeled secondary anti-human IgG Fcγ Ab. Median fluorescence values from flow cytometry were obtained using FlowJo software. EC₅₀ values were generated from an asymmetric sigmoidal 5PL fit using GraphPad Prism. Data are from one of two independent, representative experiments. […] All statistical analyses were by unpaired t test.

| Binder | MFI at 16.7 µg/mL [1] | EC50 [2] [µg/mL] | EC50 [3] [µg/mL] | ADCC signaling, ADCC reporter bioassay (FcgRIIIa V158 Jurkat pseudoeffector cells, Raji targets; fold over Rituximab) [4] | target cell lysis, PBMC ADCC bioassay on Raji cells (fold over Rituximab) [4] | binding result [5] | EC50 [6] [µg/mL] |
| --- | --- | --- | --- | --- | --- | --- | --- |
| B1 | 20000 | 1.8 | 2.5 | > 100 fold relative to Rituximab | ~10 fold relative to Rituximab |  |  |
| B2 | 19000 | 3.2 | 5.7 | > 100 fold relative to Rituximab | ~10 fold relative to Rituximab | no binding |  |
| B3 | 18000 | 5.9 | 7.3 | > 100 fold relative to Rituximab | ~10 fold relative to Rituximab | no binding |  |
| B4 | 21000 | 2 | 2 | > 100 fold relative to Rituximab | ~10 fold relative to Rituximab | no binding |  |
| B5 | 14000 | 4.5 | 5.6 |  |  |  | 4.5 |
| B6 |  |  |  |  |  |  | 3.5 |
